Square brackets hold non-standard residues; d marks the D form. Ends that are not written are not given here. pY = N[C@@H](Cc1ccc(OP(=O)(O)O)cc1)C(=O)O

Usually Kd stands for the free concentration of one partner at which half of the binding sites on the other are occupied at equilibrium, for simple one-to-one binding.

The test has as its target Brk SH2 domain (UniProt Q13882 78-170). In words: ITC.

Chain of Brk SH2 domain (Q13882 78-170): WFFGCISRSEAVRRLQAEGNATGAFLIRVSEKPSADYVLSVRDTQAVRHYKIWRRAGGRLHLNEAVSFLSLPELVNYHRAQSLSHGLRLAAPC

The molecule FTS[pY]ENPTG [Phosphorylated Brk C-terminal tail peptide, wild type (FTSpYENPTG)] returned a Kd of 15 µM.
Under FTS[pY]ENLTG [Phosphorylated Brk C-terminal tail peptide with the P450L substitution (FTSpYENLTG)] stands 53 µM.

For the origin of these results see article PMC4757811 (Biochemistry, 2015).
